Molecular target: T1, pH 2.0-treated Fc (Fc region of human monoclonal IgG, acid-treated and neutralised) (human)
T1 construct: Dialysed at pH 2.0 for 12 h, then neutralised; also called acid-treated Fc region
Assay: SPR (Biacore T100), AF.ab9 immobilised on CM5, Fc region as analyte

binding response relative to that on the acid-treated (non-native) Fab region: ≤ 0.01 fold
B1: Polypeptide AF.ab9 (SEQ ID NO: 8) (peptide)
peptide: PNSGGGGSYDPETGTWPQEIRLILNW
notes: Chemically synthesised; 8-residue linker + 8-residue chignolin + 10-residue selected region

— US20190194249A1 (NATIONAL INSTITUTE OF ADVANCED INDUSTRIAL SCIENCE AND …, published 2019)
